Article PMC3962490, “The Yeast Ess1 Prolyl Isomerase Controls Swi6 and Whi5 Nuclear Localization” (G3: Genes|Genomes|Genetics, 2014)
Non-standard residues stand in square brackets, D forms with d. No end group written: not given here. *: point of attachment. Biotin = O=C1N[C@H]2[C@H](CS[C@H]2CCCCC(=O)*)N1; pS = N[C@@H](COP(=O)(O)O)C(=O)O

B1: Whi5-NES peptide (unphosphorylated) (peptide)
peptide: Biotin-GGSGGFLSPSPRLRSPPT
notes: flexible linker; Whi5, S. cerevisiae, residues 152-164 (portion of the nuclear export signal); source: synthetic peptide (NEOBioLab), HPLC purified >95%
B2: Whi5-NLS peptide (unphosphorylated) (peptide)
peptide: Biotin-GGSGGTPSPPSPPGI
notes: flexible linker; source: synthetic peptide (NEOBioLab), HPLC purified >95%
B3: Whi5-NES-P peptide (peptide)
peptide: Biotin-GGSGGFL[pS]P[pS]PRLR[pS]PPT
notes: flexible linker; Whi5, S. cerevisiae, residues 152-164 (portion of the nuclear export signal); By the printed limits the phosphoserines are Ser154, Ser156 and Ser161; also called phosphorylated Whi5-NES peptide; Whi5 phospho-peptide; source: synthetic peptide (NEOBioLab), HPLC purified >95%
B4: CTD peptide (unphosphorylated) (peptide)
peptide: Biotin-GGSGGSYSPTSPSYS
notes: flexible linker ([Gly-Gly-Ser]2); based on the consensus heptapeptide repeat in the carboxy-terminal domain (CTD) of Rpb1, largest subunit of RNA polymerase II; also called unphosphorylated CTD peptide; unphosphorylated CTD control peptide; source: synthetic peptide (NEOBioLab), HPLC purified >95%
B5: Recombinant S. cerevisiae Ess1 protein (enzyme, UniProt P22696 1-170, looked up)
chain: MPSDVASRTGLPTPWTVRYSKSKKREYFFNPETKHSQWEEPEGTNKDQLHKHLRDHPVRVRCLHILIKHKDSRRPASHRSENITISKQDATDELKTLITRLDDDSKTNSFEALAKERSDCSSYKRGGDLGWFGRGEMQPSFEDAAFQLKVGEVSDIVESGSGVHVIKRVG
notes: Ess1 peptidyl prolyl cis/trans isomerase, S. cerevisiae; also called purified Ess1 protein; Ess1 prolyl isomerase; source: Escherichia coli, purified as described (Li et al. 2005)
B6: Swi6-NLS peptide (unphosphorylated) (peptide)
peptide: Biotin-GGSGGSRELGSPLKK
notes: flexible linker ([Gly-Gly-Ser]2); source: synthetic peptide (NEOBioLab), HPLC purified >95%
B7: Whi5-NLS-P peptide (peptide)
peptide: Biotin-GGSGGTP[pS]PP[pS]PPGI
notes: flexible linker; By the printed limits the phosphoserines are Ser59 and Ser62; also called phosphorylated Whi5-NLS peptide; Whi5 phospho-peptide; source: synthetic peptide (NEOBioLab), HPLC purified >95%
B8: Swi6-NLS-P peptide (peptide)
peptide: Biotin-GGSGGSRELG[pS]PLKK
notes: flexible linker ([Gly-Gly-Ser]2); By the printed limits the phosphoserine is Ser160; also called phosphorylated Swi6-NLS peptide; phospho-Swi6 peptide; source: synthetic peptide (NEOBioLab), HPLC purified >95%
B9: CTD-P peptide (phosphorylated peptide corresponding to the CTD of RNAPII) (peptide)
peptide: Biotin-GGSGGSYSPT[pS]PSYS
notes: flexible linker ([Gly-Gly-Ser]2); based on the consensus heptapeptide repeat in the carboxy-terminal domain (CTD) of Rpb1, largest subunit of RNA polymerase II; The phosphoserine is Ser5 of the heptad YSPTSPS; also called phospho-CTD peptide; phosphorylated CTD peptide; source: synthetic peptide (NEOBioLab), HPLC purified >95%

How the values were obtained:
Test in all cases: BLI; Octet RED, 24°; N-terminally biotinylated peptides immobilised on streptavidin biosensors; Ess1 in solution (3, 10, 30 μM); 20 mM Tris-HCl pH 8.0, 1 mg/mL BSA; no-peptide sensor subtracted; apparent dissociation constants (Kapp) from kinetic and equilibrium data, considering only the predominant faster-dissociating signal; for unphosphorylated peptides Kapp estimated from the signal at 30 μM Ess1
Details in all cases: both partners purified
[1] = target: B5
Whi5-NLS-P peptide = target: B7
Swi6-NLS-P peptide = target: B8
[2] = target: B9
Whi5-NES-P peptide = target: B3
[3] = target: B5; remark: listed apart in the source

Binder: B1
Kd [1]: > 1500 µM

Binder: B2
Kd [1]: > 25 µM

Binder: B3
Kd [1]: 2.19 µM

Binder: B4
Kd [1]: > 300 µM

Binder: B5
KappEq (equilibrium) (Whi5-NLS-P peptide): 0.48 ± 0.46 µM
KappK (kinetic) (Whi5-NLS-P peptide): 2.87 ± 0.82 µM
KappEq (equilibrium) (Swi6-NLS-P peptide): 10.1 ± 5.1 µM
KappK (kinetic) (Swi6-NLS-P peptide): 7.25 ± 4.63 µM
KappEq (equilibrium) [2]: 1.65 ± 0.06 µM
KappK (kinetic) [2]: 2.58 ± 0.65 µM
KappEq (equilibrium) (Whi5-NES-P peptide): 1.13 ± 0.18 µM
KappK (kinetic) (Whi5-NES-P peptide): 3.25 ± 0.7 µM

Binder: B6
Kd [1]: > 100 µM

Binder: B7
Kd [1]: 1.67 µM

Binder: B8
Kd [1]: 8.67 µM
koff [3]: 0.254 s⁻¹

Binder: B9
Kd [1]: 2.12 µM
